For assay [1], the target named is PD-L1 (blocking assay of Example 11) (UniProt Q9NZQ7 19-239, limits assumed). The assay is described as follows: cell-based or functional assay.
In assay [2] the target is human PD-L1 on CHO-K1 cells (human, UniProt Q9NZQ7 19-290). The assay is described as follows: cell-based or functional assay.
Assay [3] concerns the target T1, recombinant human PD-L1 His protein (human, UniProt Q9NZQ7 19-239).
T1 construct: not shown: His tag
The assay is described as follows: SPR Biacore T200, PD-L1 His on chip, sdAb analyte. On the procedure: Affinity constant (Kd) of each sdAb and HCAb was determined by surface plasmon resonance (SPR) on a BIAcore T200 instrument. Briefly, PD-L1 His was amine-coupled to a CMS sensor chip at a density of no higher than 100 RU. […] Flow rate was 30 μl/min in all experiments. Association and dissociation phases were 5 and 10 min, respectively. The chip was regenerated using Glycine/HCl pH 1.5. Binding curves at different concentrations of sdAbs and HCAbs were used to calculate the kinetic parameters kₒₙ, koff and KD.
(In general: Surface plasmon resonance follows binding to a sensor surface in real time, without labels.)

Assay [4] concerns the target T2, recombinant human SIRPα variant 2 protein (human, UniProt P78324 31-370, limits assumed).
T2 construct: polymorphic variant 2; also called SIRPα v2; hSIRPαV2
The assay is described as follows: SPR Biacore 8K, antibody captured, antigen analyte. On the procedure: The binding kinetics assay of antibody to antigen was performed using Biacore 8K system through human antibody capture approach. The […] Fc lgG were immobilized on CM5 sensor chip according to the manufactory's instruction. The test antibody was injected and captured by the immobilized anti-human Fc lgG. […] The assay system was regenerated by injection of 10 mM Glycine-HCl pH 1.5 for 30 seconds. The running buffer was HBS-EP+ (10 mM HEPES, pH 7.4, 150 mM NaCl, 3 mM EDTA and 0.05% P20). The assay temperature was 25° C., and the association and dissociation time were 180 and 600 seconds, respectively.

Sequence of human PD-L1 on CHO-K1 cells (Q9NZQ7 19-290): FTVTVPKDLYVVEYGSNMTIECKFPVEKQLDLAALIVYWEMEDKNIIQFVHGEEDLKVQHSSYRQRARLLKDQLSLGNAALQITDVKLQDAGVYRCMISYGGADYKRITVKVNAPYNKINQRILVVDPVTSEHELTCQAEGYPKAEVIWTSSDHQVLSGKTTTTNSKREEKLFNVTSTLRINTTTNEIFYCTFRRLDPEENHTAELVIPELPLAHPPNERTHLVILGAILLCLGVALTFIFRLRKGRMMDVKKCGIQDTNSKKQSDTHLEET
T2 sequence (P78324 other isoform, or with tags, fused parts or gaps mutant limits assumed): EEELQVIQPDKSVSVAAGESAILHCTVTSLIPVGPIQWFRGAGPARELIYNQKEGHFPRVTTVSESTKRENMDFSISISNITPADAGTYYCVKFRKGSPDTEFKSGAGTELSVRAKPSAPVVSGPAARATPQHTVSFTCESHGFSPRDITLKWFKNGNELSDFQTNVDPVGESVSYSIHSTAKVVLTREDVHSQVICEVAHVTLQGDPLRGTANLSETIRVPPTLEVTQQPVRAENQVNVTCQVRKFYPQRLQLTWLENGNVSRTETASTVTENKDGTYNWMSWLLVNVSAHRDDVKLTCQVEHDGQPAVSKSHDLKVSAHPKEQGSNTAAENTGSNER
Sequence of PD-L1 (blocking assay of Example 11) (Q9NZQ7 19-239 limits assumed): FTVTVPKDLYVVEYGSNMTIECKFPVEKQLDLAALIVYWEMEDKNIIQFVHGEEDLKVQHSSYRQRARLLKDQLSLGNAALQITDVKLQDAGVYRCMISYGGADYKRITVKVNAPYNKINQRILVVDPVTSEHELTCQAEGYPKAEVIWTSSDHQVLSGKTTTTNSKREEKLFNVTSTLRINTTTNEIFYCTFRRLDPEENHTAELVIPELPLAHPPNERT
T1 sequence (Q9NZQ7 19-239 limits assumed): as above

B1: PD-L1/SIRPa-LC1 (bispecific antibody, human IgG4 S228P, kappa)
heavy: not shown
light: EIVLTQSPGTLSLSPGERATLSCRASSSVSSSYLYWYQQKPGQAPRLLIYSTSNLASGIPDRFSGSGSGTDYTLTISRLEPEDAAVYFCHQWYSYPRTFGGGTKVEIKRTVAAPSVFIFPPSDEQLKSGTASVVCLLNNFYPREAKVQWKVDNALQSGNSQESVTEQDSKDSTYSLSSTLTLSKADYEKHKVYACEVTHQGLSSPVTKSFNRGECGGGGSGGGGSGGGGSEVQLVESGGGLVQPGGSLRLSCAASGRTFVTYGMGWFRQAPGKGREFVSAISWSGSMTSYGDSVKGRFTISRDNAKNTLYLQMNSLRPEDTAVYYCAAALGAVVYTTREPYTYWGQGTLVTVSS
Regarding B1, the “EC50, luminescence (RLU) in the PD-1/PD-L1 Blockade Assay” value (“EC50, luminescence (RLU)” for short) in assay [1] is 1.36 nM.

B2: AS11947 sdAb (VHH)
VHH: DVQLVESGGGLVQAGDSLRLTCSASGRTFISYAVGWFRQAPGTEREFVAGIRWNGISTDYTDSVKGRFTISRDNAKNTVYLQMNSLKPEDTAIYYCAAHRTIATIPNKYEYDHWGQGTQVTVSS
notes: His6-tagged llama sdAb
In the case of B2, the “EC50 of PD-L1-based blockade assay (luciferase reporter)” value (shortened to “EC50 of PD-L1-based blockade assay”) in assay [2] was 77.2 nM. Besides, in assay [3], the equilibrium dissociation constant (Kd) is 0.617 nM, the koff came out at 0.00118 s⁻¹ and the on-rate (kon) was 1.92e+06 M⁻¹ s⁻¹.

B3: PD-L1/SIRPa-HC2 (bispecific antibody, human IgG4 S228P, kappa)
heavy: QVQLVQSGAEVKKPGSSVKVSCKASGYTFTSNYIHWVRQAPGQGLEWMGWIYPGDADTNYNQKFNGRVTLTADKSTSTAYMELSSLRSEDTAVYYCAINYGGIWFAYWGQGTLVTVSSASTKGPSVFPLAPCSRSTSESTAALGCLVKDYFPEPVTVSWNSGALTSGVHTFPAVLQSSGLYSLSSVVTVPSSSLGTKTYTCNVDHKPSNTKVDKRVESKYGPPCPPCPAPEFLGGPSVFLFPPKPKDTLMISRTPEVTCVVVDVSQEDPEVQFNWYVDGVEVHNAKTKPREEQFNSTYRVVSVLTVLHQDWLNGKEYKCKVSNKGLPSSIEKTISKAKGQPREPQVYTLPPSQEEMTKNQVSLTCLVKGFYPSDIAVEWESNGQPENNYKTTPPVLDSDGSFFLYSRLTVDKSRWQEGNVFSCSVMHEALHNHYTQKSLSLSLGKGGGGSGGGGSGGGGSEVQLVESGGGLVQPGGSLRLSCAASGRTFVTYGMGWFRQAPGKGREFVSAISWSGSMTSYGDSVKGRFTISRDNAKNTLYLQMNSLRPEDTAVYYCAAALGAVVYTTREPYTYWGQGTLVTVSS
light: DIQMTQSPSSLSASVGDRVTITCQASQDIGNKLIWYQQKPGKAPKLLIYYVTNLPGGVPSRFSGSGSGTDFTLTISSLQPEDFATYYCLQYKQNPLTFGQGTKLEIKRTVAAPSVFIFPPSDEQLKSGTASVVCLLNNFYPREAKVQWKVDNALQSGNSQESVTEQDSKDSTYSLSSTLTLSKADYEKHKVYACEVTHQGLSSPVTKSFNRGEC
B3: the “EC50, luminescence (RLU)” value in assay [1] came to 1.28 nM.

B4: AS06778 sdAb (VHH)
VHH: QVQLVESGGGLVQAGGSLKLSCAASGRTFITYAMGWFRQAPGKERELVAAISWSGSSTYSADSVKGRFTISRDNAKNTVYLQMNSLKPEDTAVYYCAAEVSARTGEHLPKLMGDYWGQGTQVTVSS
notes: His6-tagged llama sdAb
Turning to B4, the “EC50 of PD-L1-based blockade assay” value in assay [2] was 20.1 nM. Further, in assay [3], the Kd was 0.0233 nM, the koff is 4.42e-05 s⁻¹ and the kon turned out to be 1.9e+06 M⁻¹ s⁻¹.

B5: HSP210-02-hz52 (antibody, V domains shown)
VH: QVQLVQSGAEVKKPGASVKVSCKASGFNFEDTYMHWVRQAPGQGLEWMGRIDPADADTKYNPKFQDRVTITVDTSTNTAYMELSSLRSEDTAVYYCVRGNYVNWGQGTTVTVSS
VL: EIVLTQSPGTLSLSPGERATLSCRASSSVSSSYLYWYQQKPGQAPRLLIYSTSNLASGIPDRFSGSGSGTDYTLTISRLEPEDAAVYFCHQWYSYPRTFGGGTKVEIK
notes: humanized 248G3F6, VH v5 + VL v2; also called SIRPa IgG#1 02-hz52
For B5, in assay [4], the Kd worked out at 7.4 nM, the koff was found to be 0.00247 s⁻¹ and the association rate constant (kon) worked out at 333000 M⁻¹ s⁻¹.

B6: AS11948 sdAb (VHH)
VHH: EVQLVESGGGLVQAGDSLRLSCVASGRTFVTYGMGWFRQAPGKEREFVAAINWSGSMTSYGDSVKGRFAISRDNAKNTVYLQMNSLKPEDTAVYYCAAALGAVVYTTREPYTYWGRGTQVTVSS
notes: His6-tagged llama sdAb
As for B6, in assay [2], the “EC50 of PD-L1-based blockade assay” value came out at 25.2 nM. In assay [3], the Kd worked out at 0.167 nM, the koff came to 0.000394 s⁻¹ and the kon is 2.37e+06 M⁻¹ s⁻¹.

B7: AS06628 sdAb (VHH)
VHH: QVQLVESGGGLVQAGGSLRLSCAASGRTFITYAIGWFRQAPGKEREFVTAINWSGSMTSYADSVKGRFTISRDNNKNMVYLQMNSLKPEDTAVYYCAAHRGAIAPMTQSVYDYWGQGTQVTVSS
notes: His6-tagged llama sdAb
Consider B7, for which, in assay [2], the “EC50 of PD-L1-based blockade assay” value came to 24.2 nM. Moreover, in assay [3], the Kd came to 0.0526 nM, the koff was determined as 0.000215 s⁻¹ and the kon came out at 4.1e+06 M⁻¹ s⁻¹.

B8: AS06791 sdAb (VHH)
VHH: QVQLVESGGGLVQAGGSLRLSCAASGRTFITYAIGWFRQAPGKEREFVTAINWSGSMTSYADSVKGRFTISRDNAKNTVYLQINGLKSEDTAVYYCAAHRGAIAPMTQSVYDYWGQGTQVTVSS
notes: His6-tagged llama sdAb
On to B8, for which the “EC50 of PD-L1-based blockade assay” value in assay [2] came to 36.5 nM. Moreover, in assay [3], the Kd was determined as 0.153 nM, the koff amounted to 0.000239 s⁻¹ and the kon is 1.56e+06 M⁻¹ s⁻¹.

B9: AS06703 sdAb (VHH)
VHH: EVQLVESGGGLVRAGGSLRLSCAASGRTFITYAIGWFRQAPGKEREFVTAINWSGSMTSYADSVKGRFTISRDNNKNTVYLQMNSLKPEDTALYYCAAHLGAIAPMSQSVYDYWGQGTQVTVSS
notes: His6-tagged llama sdAb
Regarding B9, in assay [2], the “EC50 of PD-L1-based blockade assay” value turned out to be 15 nM. Moreover, in assay [3], the dissociation constant Kd worked out at 0.0387 nM, the koff was 6.96e-05 s⁻¹ and the kon was 1.8e+06 M⁻¹ s⁻¹.

B10: AS06730 sdAb (VHH)
VHH: QVQLVESGGGLVQAGGSLRLSCAASGRTFITYAIGWFRQAPGKEREFVSAINWSGSMTSYADSVKGRFTISRDNAKNTVYLQMNGLKPEDTAVYYCAAHRGAIAPIAQSVYTNWGQGTQVTVSS
notes: His6-tagged llama sdAb
For B10, in assay [2], the “EC50 of PD-L1-based blockade assay” value came out at 17.2 nM. Moreover, in assay [3], the Kd was found to be 0.0195 nM, the off-rate (koff) is 0.000139 s⁻¹ and the kon stood at 7.11e+06 M⁻¹ s⁻¹.

B11: AS06750 sdAb (VHH)
VHH: AVQLVESGGGLVQAGDSLRLSCTASGRTFLTYAVGWFRQAPGTEREFVAGIRWSGGYTDYADSVKGRFTISRDNAKNTVYLQMNSLKPEDTAVYYCAAHRTIATIPEKYEYEYWGQGTQVTVSS
notes: His6-tagged llama sdAb
For the molecule B11, in assay [2], the “EC50 of PD-L1-based blockade assay” value is 33.6 nM. Besides, in assay [3], the Kd worked out at 0.109 nM, the koff worked out at 0.000223 s⁻¹ and the kon worked out at 2.05e+06 M⁻¹ s⁻¹.

B12: AS06618 sdAb (VHH)
VHH: EVQLVESGGRLVRAGDSLRLSCAASGRTFLSYAVGWFRQAPGTEREFVAGIRWSGGYTDYAEAVKGRFTISRDNAKNTVYLQMNSLKPEDTAVYYCAAHRTIATIPEKYEYEYWGQGTQVTVSS
notes: His6-tagged llama sdAb
Turning to B12, in assay [2], the “EC50 of PD-L1-based blockade assay” value turned out to be 44.5 nM. For the same molecule, in assay [3], the Kd was 0.17 nM, the koff was 0.000245 s⁻¹ and the kon worked out at 1.44e+06 M⁻¹ s⁻¹.

B13: AS06682 sdAb (VHH)
VHH: AVQLVESGGGLVQAGDSLRLSCTASGRTFLSYAVGWFRQAPGTEREFVAGIRWSGEHTDYAASVKGRFTISRDNAKNTVYLQMNSLKPEDTAVYYCAAHTTIATIPKKYEYEYWGQGTQVTVSS
notes: His6-tagged llama sdAb
On to B13, for which, in assay [2], the “EC50 of PD-L1-based blockade assay” value was found to be 42 nM. In assay [3], the Kd was 0.203 nM, the off-rate constant (koff) amounted to 0.000342 s⁻¹ and the kon worked out at 1.68e+06 M⁻¹ s⁻¹.

B14: AS06617 sdAb (VHH)
VHH: DVQLVESGGGLVQAGDSLRLSCAASGRTFISYAVGWFRQAPGSEREFVAGIRWNGIHTDYADSVKGRFTISRDNAKNTVTLEMTSLKPEDTAVYYCAAHRTIATIPEKYEYEYWGQGTQVTVSS
notes: His6-tagged llama sdAb
Take B14: in assay [2], the “EC50 of PD-L1-based blockade assay” value came out at 63.8 nM. In addition, in assay [3], the Kd stood at 0.249 nM, the koff was determined as 0.000464 s⁻¹ and the kon was found to be 1.86e+06 M⁻¹ s⁻¹.

B15: AS12003 sdAb (VHH)
VHH: EVQLVESGGGLVQAGDSLRLSCAASGRTFLSYAVGWFRQAPGTEREFVAGIRWSGGSTDYADSVKGRFTISRDNAKNTVYLQMNSLKPEDTAVYYCAAHRTIATVPNKYEYDTWGQGTQVTVSS
notes: His6-tagged llama sdAb
On to B15, for which the “EC50 of PD-L1-based blockade assay” value in assay [2] turned out to be 96.2 nM. For the same molecule, in assay [3], the Kd came to 0.56 nM, the koff was found to be 0.00155 s⁻¹ and the on-rate constant (kon) stood at 2.76e+06 M⁻¹ s⁻¹.

B16: AS06775 sdAb (VHH)
VHH: QVQLVESGGGLVQAGDSLRLSCAASGRTFLTLAVGWFRQAPGTEREFVAGIRWSGSGTDYADSVKGRFTISRDNAKNTVYLQMNSLKPEDTAVYYCAAHTTIATIPEKYEYEYWGRGTQVTVSS
notes: His6-tagged llama sdAb
As to B16, the “EC50 of PD-L1-based blockade assay” value in assay [2] stood at 75.5 nM. Moreover, in assay [3], the Kd was determined as 0.156 nM, the off-rate (koff) is 0.000247 s⁻¹ and the kon was found to be 1.58e+06 M⁻¹ s⁻¹.

B17: AS06686 sdAb (VHH)
VHH: AVQLVESGGGLVQAGDSLRLACAASGRTFLTYALGWFRQAPGKEREFVAGVSWSGSSTKYADSVKGRFTISRDNAKNTVYMQMNSLKPEDTAVYYCAAQISAIVPISAHEYQYWGQGTQVTVSS
notes: His6-tagged llama sdAb
Consider B17, for which the “EC50 of PD-L1-based blockade assay” value in assay [2] is 352 nM. Also, in assay [3], the Kd worked out at 0.346 nM, the koff worked out at 0.000965 s⁻¹ and the kon was found to be 2.79e+06 M⁻¹ s⁻¹.

B18: PD-L1/SIRPa-LN1 (bispecific antibody, human IgG4 S228P, kappa)
heavy: not shown
light: EVQLVESGGGLVQPGGSLRLSCAASGRTFVTYGMGWFRQAPGKGREFVSAISWSGSMTSYGDSVKGRFTISRDNAKNTLYLQMNSLRPEDTAVYYCAAALGAVVYTTREPYTYWGQGTLVTVSSGGGGSGGGGSGGGGSEIVLTQSPGTLSLSPGERATLSCRASSSVSSSYLYWYQQKPGQAPRLLIYSTSNLASGIPDRFSGSGSGTDYTLTISRLEPEDAAVYFCHQWYSYPRTFGGGTKVEIKRTVAAPSVFIFPPSDEQLKSGTASVVCLLNNFYPREAKVQWKVDNALQSGNSQESVTEQDSKDSTYSLSSTLTLSKADYEKHKVYACEVTHQGLSSPVTKSFNRGEC
Consider B18, for which the “EC50, luminescence (RLU)” value in assay [1] was 1.13 nM.

The Kd is the constant that tells how readily two partners part at equilibrium. What is called koff is the first-order rate constant of dissociation. For orientation: kon means a measure of how fast the partners come together.

The values are drawn from patent publication US20240101716A1 (LA NOVA MEDICINES DEVELOPMENT, published 2024).
